The values below come from patent US20180155451A1 (published 2018).

In general, Kd refers to a measure of binding affinity in units of concentration. Low readings indicate higher affinity, high ones lower affinity.

Positions count from the first letter of the chain named. In names and notes the source's numbering stands. Where two headings read alike, the source gives them in different places.

In assay [1] the target is T1, FcgRIa (human, UniProt P12314 16-292).
T1 construct: extracellular domain; Expressed in FreeStyle293 cells and purified; used as analyte in Biacore; also called FcγRIa; FcγRI; not shown: His tag attached to the C terminus
In words: SPR (Biacore), antibody captured on chip, FcgR extracellular domain as analyte. The procedure:
(§1) Analysis of interaction between obj ective antibody and the FcγR was carried out using Biacore T100 (GE Healthcare), Biacore T200, Biacore A100, and Biacore 4000. HBS-EP+ (GE Healthcare) was used as the running buffer, and the measurement temperature was set to 25° C. Chips produced by immobilizing the antigen peptide by the amine coupling method to a Series S sensor Chip CM5 (GE Healthcare), chips produced by allowing preliminarily biotinylated antigen peptides to interact with and immobilize onto a Series S Sensor Chip SA (certified) (GE Healthcare), chips produced by immobilizing Protein L (ACTIGEN, BioVision) to Series S Sencor Chip CM5 (GE Healthcare), or chips produced by immobilizing Protein A/G (Thermo Scientific) to Series S Sencor Chip CM5 (GE Healthcare) were used. Antibodies of interest were captured onto these chips, and allowed to interact to each FcγR diluted with running buffer. To regenerate and repeatedly use the chip, the antibodies captured onto the chip were washed off by reacting 10 mM glycine-HCl, pH 1.5.
(In general: In SPR one partner is held on a chip, and binding of the other changes the refractive index at the surface.)
T1 sequence (P12314 16-292): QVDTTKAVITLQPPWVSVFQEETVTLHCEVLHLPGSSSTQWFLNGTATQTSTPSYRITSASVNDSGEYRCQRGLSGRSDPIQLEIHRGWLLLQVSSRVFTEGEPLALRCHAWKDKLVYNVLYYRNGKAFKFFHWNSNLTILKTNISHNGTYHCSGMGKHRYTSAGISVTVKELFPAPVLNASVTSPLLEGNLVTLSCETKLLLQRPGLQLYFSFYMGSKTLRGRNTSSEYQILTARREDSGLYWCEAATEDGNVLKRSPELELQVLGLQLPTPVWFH

For assay [2], the target named is T2, FcgRIIa H (human, UniProt P12318 34-217).
T2 construct: extracellular domain; also called FcγRIIa H; FcγRIIa type H; not shown: His tag attached to the C terminus
T2 sequence (looked up): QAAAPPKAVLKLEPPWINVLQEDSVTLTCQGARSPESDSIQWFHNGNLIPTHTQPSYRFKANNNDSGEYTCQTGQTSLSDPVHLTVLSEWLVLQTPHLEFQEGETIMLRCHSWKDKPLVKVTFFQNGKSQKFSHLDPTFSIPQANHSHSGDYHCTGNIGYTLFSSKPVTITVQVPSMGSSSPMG
The description is as above. As to the method: as §1

Assay [3] concerns the target T3, FcgRIIb (human, UniProt P31994 43-217).
T3 construct: extracellular domain; Expressed in FreeStyle293 cells and purified; used as analyte in Biacore; also called FcγRIIb; CD32B; not shown: His tag attached to the C terminus
T3 sequence (looked up): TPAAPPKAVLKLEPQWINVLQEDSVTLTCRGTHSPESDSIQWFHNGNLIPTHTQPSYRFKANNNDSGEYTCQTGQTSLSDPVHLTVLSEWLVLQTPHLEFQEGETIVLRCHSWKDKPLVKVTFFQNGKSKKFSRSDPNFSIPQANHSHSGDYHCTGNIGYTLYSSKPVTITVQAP
Described as above. The procedure:
as §1

In assay [4] the target is T4, FcgRIIa R (human, UniProt P12318 34-217).
T4 construct: extracellular domain; also called FcγRIIa R; FcγRIIa type R; not shown: His tag attached to the C terminus
T4 sequence (looked up): T2 sequence (looked up) with H134R
The assay is described as above. As to the method:
as §1

Assay [5] has as its target T5, FcgRIIIa V (human, UniProt P08637 17-208).
T5 construct: extracellular domain; also called FcγRIIIa V; not shown: His tag attached to the C terminus
The description is as above. As to the method:
as §1

For assay [6], the target named is T6, FcgRIIIa F (human, UniProt P08637 17-208).
T6 construct: extracellular domain; also called FcγRIIIa F; not shown: His tag attached to the C terminus
T6 sequence (P08637 17-208): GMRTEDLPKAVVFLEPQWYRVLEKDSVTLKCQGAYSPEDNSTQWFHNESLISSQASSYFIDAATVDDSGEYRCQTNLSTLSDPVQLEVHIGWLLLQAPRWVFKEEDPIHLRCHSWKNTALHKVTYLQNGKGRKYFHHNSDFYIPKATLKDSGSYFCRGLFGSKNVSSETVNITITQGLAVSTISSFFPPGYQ
The assay is described as above. As to the method:
as §1

Assay [7] has as its target T1, FcgRIa. The assay is described as above. This is another data set of the same source.
In assay [8] the target is T2, FcgRIIa H. The description is as above. This is another data set of the same source.
In assay [9] the target is T3, FcgRIIb. The assay is described as above. The source holds these as a separate data set.
Assay [10] deals with T4, FcgRIIa R. The description is as above. This is another data set of the same source.
Assay [11] addresses T5, FcgRIIIa V. The assay is described as above. The source holds these as a separate data set.
Assay [12] deals with T6, FcgRIIIa F. Described as above. This is another data set of the same source.
Assay [13] addresses T7, FcgRIIIaF (human, UniProt P08637 17-208).
T7 construct: extracellular domain; F158 allotype; also called FcγRIIIa F; not shown: C-terminal His tag
As to the kind of experiment: SPR (Biacore); KD of H240-Kn120/H240-Hl068/L73-k0 divided by KD of the sample. As to the method: (§2) The variants described above were assessed for their binding to FcgR according to the method described in Reference Example 8.
as §1

Assay [14] concerns the target T8, FcgRIIaH (human, UniProt P12318 34-217).
T8 construct: extracellular domain; H131 allotype; also called FcγRIIa H; FcgRIIa type H; not shown: C-terminal His tag
T8 sequence (looked up): T2 sequence (looked up)
The assay is described as above. As to the method:
as §2, §1

For assay [15], the target named is T9, FcgRIIaR (human, UniProt P12318 34-217).
T9 construct: extracellular domain; R131 allotype; also called FcγRIIa R; FcgRIIa type R; not shown: C-terminal His tag
T9 sequence (looked up): T2 sequence (looked up) with H134R
The assay is described as above. As to the method: as §2, §1

Assay [16] addresses T10, FcgRIIb (human, UniProt P31994 43-217).
T10 construct: extracellular domain; also called FcγRIIb; CD32B; not shown: C-terminal His tag
T10 sequence (looked up): T3 sequence (looked up)
Described as above. As to the method: as §2, §1

For assay [17], the target named is T11, FcgRIIIaV (human, UniProt P08637 17-208).
T11 construct: extracellular domain; V158 allotype; also called FcγRIIIa V; not shown: C-terminal His tag
T11 sequence (P08637 17-208 F176V limits assumed): as the sequence (P08637 17-208) above, with F160V counted along it
Described as above. The procedure:
as §2, §1

The target in assay [18] is T7, FcgRIIIaF. In words: SPR (Biacore), antibody captured on chip, FcgR as analyte. As to the method:
as §2, §1

The target of assay [19] is T12, FcgRIa (human, UniProt P12314 16-292).
T12 construct: extracellular domain; also called FcγRIa; FcγRI; not shown: C-terminal His tag
The description is as above. The procedure:
as §2, §1
T12 sequence (P12314 16-292): as the sequence (P12314 16-292) above

The target in assay [20] is T8, FcgRIIaH. The assay is described as above. As to the method: as §2, §1
For assay [21], the target named is T9, FcgRIIaR. Described as above. The procedure:
as §2, §1

Assay [22] deals with T10, FcgRIIb. Described as above. The procedure: as §2, §1
The target in assay [23] is T11, FcgRIIIaV. Described as above. As to the method: as §2, §1

T7 sequence (P08637 17-208): as the sequence (P08637 17-208) above
T5 sequence (P08637 17-208 F176V limits assumed): as the sequence (P08637 17-208) above, with F160V counted along it

B1: H240-G1d/L73-k0 (antibody, human IgG1, kappa)
heavy: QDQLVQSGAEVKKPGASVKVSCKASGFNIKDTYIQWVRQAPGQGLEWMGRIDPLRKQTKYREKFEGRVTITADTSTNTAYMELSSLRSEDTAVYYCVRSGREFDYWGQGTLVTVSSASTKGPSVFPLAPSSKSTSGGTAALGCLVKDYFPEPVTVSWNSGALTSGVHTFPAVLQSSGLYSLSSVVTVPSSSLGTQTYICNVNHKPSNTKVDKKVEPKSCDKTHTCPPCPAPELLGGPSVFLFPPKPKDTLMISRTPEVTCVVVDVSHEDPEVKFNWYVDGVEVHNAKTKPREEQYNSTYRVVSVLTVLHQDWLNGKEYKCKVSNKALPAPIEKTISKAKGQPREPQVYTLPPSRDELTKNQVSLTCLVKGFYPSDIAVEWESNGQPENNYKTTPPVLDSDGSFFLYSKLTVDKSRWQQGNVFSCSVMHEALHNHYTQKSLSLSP
light: DIQMTQSPSSLSASVGDRVTITCRASQDIHKYIAWYQQKPGQAPRLLIQYTSTLQPGVPSRFSGSGSGTDYTFTISSLQPEDIATYYCLQYEQLRTFGGGTKVEIKRTVAAPSVFIFPPSDEQLKSGTASVVCLLNNFYPREAKVQWKVDNALQSGNSQESVTEQDSKDSTYSLSSTLTLSKADYEKHKVYACEVTHQGLSSPVTKSFNRGEC
notes: Anti-EREG native IgG1 (G1d constant region lacks the C-terminal Gly and Lys); also called native IgG1
On to B1, for which the Kd with FcgRIa [1] was 0.23 nM; with FcgRIIa H [2], 660 nM; with FcgRIIb [3], 6100 nM; with FcgRIIa R [4] it was 880 nM; in the assay with FcgRIIIa V [5] it was 310 nM; in the assay with FcgRIIIa F [6], 1400 nM. The Kd with FcgRIa [7] amounted to 0.23 nM; with FcgRIIa H [8], 660 nM; in the assay with FcgRIIb [9] it was 6000 nM; in the assay with FcgRIIa R [10] it was 880 nM; with FcgRIIIa V [11], 310 nM; with FcgRIIIa F [12] it was 1400 nM.

B2: H240-Kn120/H240-Hl085/L73-k0 (antibody, human IgG1, kappa)
heavy 1: QDQLVQSGAEVKKPGASVKVSCKASGFNIKDTYIQWVRQAPGQGLEWMGRIDPLRKQTKYREKFEGRVTITADTSTNTAYMELSSLRSEDTAVYYCVRSGREFDYWGQGTLVTVSSASTKGPSVFPLAPSSKSTSGGTAALGCLVKDYFPEPVTVSWNSGALTSGVHTFPAVLQSSGLYSLSSVVTVPSSSLGTQTYICNVNHKPSNTKVDKKVEPKSCDKTHTCPPCPAPEYYWGPMVFLFPPKPKDTLMISRTPEVTCVVVDVSDEDPEVKFNWYVDGVEVHNAKTKPREEQYNATYRVVSVLTVLHQDWLNGKEYKCKVSNKDLPAPIEKTISKAKGQPREPQVCTLPPSRDELTKNQVSLWCLVKGFYPSDIAVEWESNGQPENNYKTTPPVLDSDGSFFLYSKLTVDKSRWQQGNVFSCSVMHEALHNHYTQKSLSLSP
heavy 2: QDQLVQSGAEVKKPGASVKVSCKASGFNIKDTYIQWVRQAPGQGLEWMGRIDPLRKQTKYREKFEGRVTITADTSTNTAYMELSSLRSEDTAVYYCVRSGREFDYWGQGTLVTVSSASTKGPSVFPLAPSSKSTSGGTAALGCLVKDYFPEPVTVSWNSGALTSGVHTFPAVLQSSGLYSLSSVVTVPSSSLGTQTYICNVNHKPSNTKVDKKVEPKSCDKTHTCPPCPAPELLVGPSVFLFPPKPKDTLMISRTPEVTCVVVDVSHEEPEVKFNWYVDGVEVHNAKTKPREEQYNSTYRVVSVLTVLHQDWLNGKEYKCKVSNDALPKPIEETISKAKGQPREPQVYTLPPSRCELTKNQVSLSCAVKGFYPSDIAVEWESNGQPENNYKTTPPVLDSDGSFFLVSKLTVDKSRWQQGNVFSCSVMHEALHNHYTQKSLSLSP
light: B1 light
notes: Heterodimerized anti-epiregulin antibody; G236V in the Hl068 chain; also called H240-Kn120/H240-HI085/L73-k0
Consider B2, for which the “Relative KD” value with FcgRIIIaF [13] amounted to 0.1; with FcgRIIaH [14] it was 0.9; with FcgRIIaR [15] it was 1.1; with FcgRIIb [16] it was 0.4; in the assay with FcgRIIIaV [17], 0.1. Besides, the Kd with FcgRIIIaF [18] turned out to be 23 nM; with FcgRIa [19] it was 87 nM; in the assay with FcgRIIaH [20], 46 nM; with FcgRIIaR [21], 19 nM; in the assay with FcgRIIb [22] it was 390 nM; in the assay with FcgRIIIaV [23], 6.2 nM.

B3: H240-Kn120/H240-Hl086/L73-k0 (antibody, human IgG1, kappa)
heavy 1: B2 heavy 1
heavy 2: B2 heavy 2 with V235I
light: B1 light
notes: Heterodimerized anti-epiregulin antibody; G236I in the Hl068 chain; also called H240-Kn120/H240-HI086/L73-k0
Turning to B3, the “Relative KD” value with FcgRIIIaF [13] was determined as 0.1; with FcgRIIaH [14], 0.8; with FcgRIIaR [15], 0.9; in the assay with FcgRIIb [16] it was 0.3; with FcgRIIIaV [17], 0. Also, the Kd with FcgRIIIaF [18] was found to be 33 nM; with FcgRIa [19] it was 1.4 nM; in the assay with FcgRIIaH [20] it was 53 nM; with FcgRIIaR [21], 22 nM; in the assay with FcgRIIb [22], 480 nM; with FcgRIIIaV [23], 14 nM.
